Laboratory results from PMC8602864, “The Molecular Assembly State of Drp1 Controls its Association With the Mitochondrial Recruitment Receptors Mff and MIEF1/2” (Frontiers in Cell and Developmental Biology, 2021).

Biological target: the molecule itself
Experiment: cross-linking; in vivo: intact 293T cells (WT; MIEF1/2/Mff-/-; overexpressing MIEF1-V5, MIEF2-V5 or Myc-Mff; or Drp1-/- transfected with untagged Drp1 for 18 h) with 1 mM DSS in PBS with Ca2+/Mg2+, time course or 3 h, room temperature, quenched with 50 mM Tris pH 7.5; reducing SDS-PAGE and Western blot

B1: untagged Drp1-4A (natural protein, human, UniProt O00429 1-736, looked up)
chain: MEALIPVINKLQDVFNTVGADIIQLPQIVVVGTQSSGKSSVLESLVGRDLLPRGTGIVTRRPLILQLVHVSQEDKRKTTGEENGVEAEEWGKFLHTKNKLYTDFDEIRQEIENETERISGNNKGVSPEPIHLKIFSPNVVNLTLVDLPGMTKVPVGDQPKDIELQIRELILRFISNPNSIILAVTAANTDMATSEALKISREVDPDGRRTLAVITKLDLMDAGTDAMDVLMGRVIPVKLGIIGVVNRSQLDINNKKSVTDSIRDEYAFLQKKYPSLANRNGTKYLARTLNRLLMHHIRDCLPELKTRINVLAAQYQSLLNSYGEPVDDKSATLLQLITKFATEYCNTIEGTAKYIETSELCGGARICYIFHETFGRTLESVDPLGGLNTIDILTAIRNATAAAAALFVPEVSFELLVKRQIKRLEEPSLRCVELVHEEMQRIIQHCSNYSTQELLRFPKLHDAIVEVVTCLLRKRLPVTNEMVHNLVAIELAYINTKHPDFADACGLMNNNIEEQRRNRLARELPSAVSRDKSSKVPSALAPASQEPSPAASAEADGKLIQDSRRETKNVASGGGGVGDGVQEPTTGNWRGMLKTSKAEELLAEEKSKPIPIMPASPQKGHAVNLLDVPVPVARKLSAREQRDCEVIERLIKSYFLIVRKNIQDSVPKAVMHFLVNHVKDTLQSELVGQLYKSSLLDDLLTESEDMAQRRKEAADMLKALQGASQIIAEIRETHLW
notes: human Drp1 isoform 1 with the four residues 401GPRP404 mutated to AAAA, untagged; Made by site-directed mutagenesis on untagged Drp1-WT; Copies: ~280 kDa cross-linked product said to correspond to tetramers; also called Drp1-4A mutant
stoichiometry N: 4
